# Key:
# [1] = target: cynomolgus monkey IgE (cynomolgus monkey); assay: capture ELISA, antibody coated; Test 1, Cyno 7 serum
# [2] = target: cynomolgus monkey IgE (cynomolgus monkey); assay: capture ELISA, antibody coated; Test 1, Cyno 3 serum
# [3] = target: cynomolgus monkey IgE (cynomolgus monkey); assay: capture ELISA, antibody coated; Test 1, Cyno 5 serum
# [4] = target: cynomolgus monkey IgE (cynomolgus monkey); assay: capture ELISA, antibody coated; Test 2, Cyno 7 serum
# [5] = target: cynomolgus monkey IgE (cynomolgus monkey); assay: capture ELISA, antibody coated; Test 1, Cyno 1 serum
# [6] = target: cynomolgus monkey IgE (cynomolgus monkey); assay: capture ELISA, antibody coated; Test 1, Cyno 2 serum
# [7] = target: cynomolgus monkey IgE (cynomolgus monkey); assay: capture ELISA, antibody coated; Test 2, Cyno 3 serum
# [8] = target: cynomolgus monkey IgE (cynomolgus monkey); assay: capture ELISA, antibody coated; Test 2, Cyno 5 serum
# [9] = target: cynomolgus monkey IgE (cynomolgus monkey); assay: capture ELISA, antibody coated; Test 2, Cyno 2 serum
# [10] = target: cynomolgus monkey IgE (cynomolgus monkey); assay: capture ELISA, antibody coated; Test 2, Cyno 1 serum
substance,measurement,setting,value
E25 (omalizumab) (antibody),IgE concentration detected,[1],0 ng/mL
same,IgE concentration detected,[2],166 ng/mL
same,IgE concentration detected,[3],232 ng/mL
same,IgE concentration detected,[4],0 ng/mL
same,IgE concentration detected,[5],172 ng/mL
same,IgE concentration detected,[6],52 ng/mL
same,IgE concentration detected,[7],135 ng/mL
same,IgE concentration detected,[8],252 ng/mL
same,IgE concentration detected,[9],104 ng/mL
same,IgE concentration detected,[10],146 ng/mL

# Source: US20110064726A1
